Reference: US20130045922A1 (CHILDREN S MEDICAL CENTER, published 2013)

Target: I^125-VEGF
Assay: cell-based or functional assay

I^125-VEGF, sequence (P15692 whole entry): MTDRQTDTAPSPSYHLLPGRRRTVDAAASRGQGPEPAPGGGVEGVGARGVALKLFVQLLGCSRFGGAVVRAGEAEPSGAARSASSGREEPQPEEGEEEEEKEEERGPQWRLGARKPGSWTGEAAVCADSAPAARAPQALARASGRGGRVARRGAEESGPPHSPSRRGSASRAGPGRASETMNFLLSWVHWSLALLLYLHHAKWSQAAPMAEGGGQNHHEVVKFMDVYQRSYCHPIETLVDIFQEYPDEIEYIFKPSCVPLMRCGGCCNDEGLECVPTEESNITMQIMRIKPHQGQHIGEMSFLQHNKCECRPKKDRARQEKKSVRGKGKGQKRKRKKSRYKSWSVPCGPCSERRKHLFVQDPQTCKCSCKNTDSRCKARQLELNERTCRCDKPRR

DRVQAQTTTVVA [Ala-5 (DRVQAQTTTVVA)] was tested, and the “ability of endothelial cells to bind VEGF in the presence of peptide” value was greater than 2 fold over original #237.
